Measurements as given in publication PMC2650276 (Neuron, 2009).
Where two headings read alike, the source gives them in different places. Where no end group is shown, it is not given here.

Key:
Assay in all cases: pull-down
[1] = biological target: T1, His-tagged full-length CaMKIIα (M1-H478), wild type (rat, UniProt P11275 1-478)
[2] = biological target: His-tagged WT pCaMKIIα (autophosphorylated at T286) (rat, UniProt P11275 1-478, phosphothreonine at T286 (autophosphorylation))
[3] = biological target: GST-tagged full-length CaMKIIα (M1-H478) (rat, UniProt P11275 1-478)
Sequence of GST-tagged full-length CaMKIIα (M1-H478) (P11275 whole entry): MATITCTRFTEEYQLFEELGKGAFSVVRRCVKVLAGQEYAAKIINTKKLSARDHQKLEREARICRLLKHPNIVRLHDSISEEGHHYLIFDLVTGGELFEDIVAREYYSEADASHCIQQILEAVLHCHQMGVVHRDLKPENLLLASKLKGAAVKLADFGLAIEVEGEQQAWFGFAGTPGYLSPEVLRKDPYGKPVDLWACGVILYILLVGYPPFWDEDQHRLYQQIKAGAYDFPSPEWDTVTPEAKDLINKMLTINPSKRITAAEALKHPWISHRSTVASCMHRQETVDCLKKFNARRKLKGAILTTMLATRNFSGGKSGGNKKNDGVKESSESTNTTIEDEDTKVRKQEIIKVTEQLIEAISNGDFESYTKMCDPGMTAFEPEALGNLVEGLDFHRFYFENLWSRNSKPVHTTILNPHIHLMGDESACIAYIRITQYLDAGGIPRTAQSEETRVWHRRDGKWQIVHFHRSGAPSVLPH

[4] = biological target: T1, His-tagged full-length CaMKIIα …; remark: listed apart in the source
[5] = biological target: T1, His-tagged full-length CaMKIIα …; remark: listed apart in the source

T1 sequence (P11275 whole entry): as above
Sequence of His-tagged WT pCaMKIIα (autophosphorylated at T286) (P11275 whole entry): as above

B1: GST-D3RIL3 (R210-Q375) (domain or fragment, rat, UniProt P19020 210-375, looked up)
chain: RIYIVLRQRQRKRILTRQNSQCISIRPGFPQQSSCLRLHPIRQFSIRARFLSDATGQMEHIEDKQYPQKCQDPLLSHLQPPSPGQTHGGLKRYYSICQDTALRHPSLEGGAGMSPVERTRNSLSPTMAPKLSLEVRKLSNGRLSTSLRLGPLQPRGVPLREKKATQ
B1: binds [1]; binds [2].

B2: D3RIL3 (R210-Q375), released from GST by thrombin (domain or fragment, rat, UniProt P19020 210-375, looked up)
chain: RIYIVLRQRQRKRILTRQNSQCISIRPGFPQQSSCLRLHPIRQFSIRARFLSDATGQMEHIEDKQYPQKCQDPLLSHLQPPSPGQTHGGLKRYYSICQDTALRHPSLEGGAGMSPVERTRNSLSPTMAPKLSLEVRKLSNGRLSTSLRLGPLQPRGVPLREKKATQ
B2: binds [3].

RIYIVLRQRQRKRILTRQNSQCISIRPGFP (domain or fragment, rat, UniProt P19020 210-239, looked up) [GST-D3RIL3(R210-P239)]: binds [4]; binds [2].

YGRKKRRQRRRRILTRQNSQCISIRP (also: biotin, position not given here) [biotinylated Tat-D3Rr]: binds [5].
